Numbering of substitutions follows the chain as printed.
What was measured:
TCR-ζ = assay: Cell-free association of TCR-ζ with the actin cytoskeleton (detergent soluble lysate, newly polymerized pellet); assay type: biochemical, murine
Method: Freshly isolated murine thymocytes or lymph node T cells, or CD25/ζ-expressing T cell hybridomas, were washed 3 times in BSS and incubated in the presence or absence of cytochalasin D for 1.5 hrs at 4° C., solubilized with 0.5% NP-40 in a Tris buffered saline solution (TBS; 150 mM NaCl, 10 mM Tris, pH 7.3) containing protease and phosphatase inhibitors (0.2 mM VO3, 10 mM NaF, 1 mM PMSF, and 1 mg/ml each of Aprotinin, Leupeptin, and α-l-antitrypsin) and centrifuged at 10,000 rpm for 10 min to pellet the insoluble material. […] To increase actin polymerization, the Mg^2+ concentration was increased to 2 mM. […] Immunoprecipitation of the detergent soluble fraction with anti-TCR-ζ antibody was then performed as described in Example 4. The pellet and the anti-TCR-ζ immunoprecipitate were resolved by SDS-PAGE gel electrophoresis and immunoblotted with anti-TCR-ζ antibody.

IL-2 production = IL-2 production by T cells expressing chimeric molecules after antibody cross-linking; assay type: cell-based; settings: for IL-2 production, fold less than the wild-type CD8/ζ: maximal stimulation with anti-CD8-α antibody, 24 hours, FIG. 4
Method: Microcultures of 0.25 ml were prepared containing 10^5 responding T cells expressing CD8/ζ, CD8/ζD67-126, CD8/ζY153E, CD25/ζ or CD25/ζY153E. For stimulation, microtiter wells were precoated with 50 μl of a phosphate-buffered saline solution containing varying concentrations of purified anti-CD8-α antibody (19/178) or anti-hCD25 antibody (B1.49.9) to cross-link the CD8/ζ, CD8/ζD67-126 and CD8/ζY153E, or CD25/ζ and CD25/ζY153E, respectively, on the surface of the T cells. Control wells were coated with an irrelevant antibody. After 2 hours at room temperature and 1 hr at 4° C., the wells were washed three times with fetal calf serum-containing tissue culture medium. […]. After 24 hours in culture, the supernatants were harvested and assayed for IL-2 content using methods generally described in Gillis et al. (J. Immunol. 120:2027-2032, 1978). A concentration of 1 U/ml of IL-2 was the minimum detectable in this assay.

[1] = tested on: BW 5147 α−β− thymoma transfectants; assay: Association of chimeric or truncated TCR-ζ molecules with the cytoskeleton upon receptor ligation (immunoblot of detergent insoluble pellet); assay type: cell-based; settings: substitution of the distal COOH-terminal tyrosine of the third ITAM

[Mg+2] [Mg^2+, reference compound]
TCR-ζ binding with actin polymerization induced in vitro (TCR-ζ; 2 mM Mg2+ alone): without additional TCR-ζ binding

CD8/ζD67-126: truncated CD8/ζ chimera expressing only intact ζc domain (SEQ ID NO:29) (RAKFSRSAETAANLQGTKGERRRGKGHDGLYQGLSTATKDTYDALHMQTLAPR)
IL-2 production, fold less than the wild-type CD8/ζ (IL-2 production): 40 fold

B1: CD25/ζ: chimera of extracellular and transmembrane regions of CD25 and the cytoplasmic domain of TCR-ζ (protein)
chain: ELCDDDPPEIPHATFKAMAYKEGTMLNCECKRGFRRIKSGSLYMLCTGNSSHSSWDNQCQCTSSATRNTTKQVTPQPEEQKERKTTEMQSPMQPVDQASLPGHCREPPPWENEATERIYHFVVGQMVYYQCVQGYRALHRGPAESVCKMTHGKTRWTQPQLICTGEMETSQFPGEEKPQASPEGRPESETSCLVTTTDFQIQTEMAATMETSIFTTEYQVAVAGCVFLLISVLLLSGLRAKFSRSAETAANLQDPNQLYNELNLGRREEYDVLEKKRARDPEMGGKQQRRRNPQEGVYNALQKDKMAEAYSEIGTKGERRRGKGHDGLYQGLSTATKDTYDALHMQTLAPR
Co-sedimentation with the actin cytoskeleton in vitro (TCR-ζ; in vitro activating (MgATP) condition, depleted from the pellet under actin depolymerizing conditions): co-sediments with the actin cytoskeleton

B2: CD25/ζY153F: CD25/ζ with the tyrosine at residue 153 substituted for a phenylalanine (SEQ ID NO:31) (protein)
chain: RAKFSRSAETAANLQDPNQLYNELNLGRREEYDVLEKKRARDPEMGGKQQRRRNPQEGVYNALQKDKMAEAYSEIGTKGERRRGKGHDGLYQGLSTATKDTFDALHMQTLAPR
Effect of removal of the distal tyrosine (Y153F) on cytoskeletal association [1]: almost completely abrogated cytoskeletal association
Tyrosine phosphorylation of a set of proteins induced by receptor ligation, compared with the intact CD25/ζ chimera (IL-2 production; receptor ligation): qualitatively and quantitatively indistinguishable

B3: CD8/ζY153E: substituted CD8/ζ chimera (SEQ ID NO:30) (protein)
chain: B2 chain with F102E
IL-2 production, fold less than the wild-type CD8/ζ (IL-2 production): 100 fold

— patent US6500430B1, “Product and process to regulate actin polymerization in T lymphocytes” (National Jewish Medical and Research Center, priority 1995, dated 2002)
